US20210395344A1 (TWIST BIOSCIENCE, published 2021)
Numbering of substitutions follows the chain as printed.

Columns and labels:
Test in all cases: phage ELISA
[1] = target: T1, SARS-CoV-2 S1 (subunit 1) protein (SARS-CoV-2, UniProt P0DTC2 16-685)
T1 construct: also called biotinylated SARS-CoV-2 S1

[2] = target: T2, COVID S1 RBM Fc fusion (Antigen 2) (SARS-CoV-2, UniProt P0DTC2 437-508)
T2 construct: domain: RBM

[3] = target: S1-Fc (SARS-CoV-2, UniProt P0DTC2 16-685)

B1: SARS-CoV-2 variant 1-41 (antibody, V domains shown)
VH: EVQLLESGGGLVQPGGSLRLSCAASGFTFSSYDMSWVRQAPGKGLEWVSVISGSGGSTYYADSVKGRFTISRDNSKNTLYLQMNSLRAEDTAVYYCAKGPLVGWYFDLWGQGTLVTVSS
VL: QSALTQPASVSGSPGQSITISCTGTSSDIGSYNLVSWYQQHPGKAPKLMIYEGTKRPSGVSNRFSGSKSGNTASLTISGLQAEDEADYYCCSYAGSRTYVFGGGTKLTVL
- screening ELISA (Avg), fold over background [1]: 18.1 fold over background
- specificity ELISA, fold over background [2]: 1.2 fold over background
- specificity ELISA, percent binding relative to Acro S1 [2]: 26.3%

B2: SARS-CoV-2 variant 1-29 (antibody, V domains shown)
VH: EVQLLESGGGLVQPGGSLRLSCAASGFTFSSYAMYWVRQAPGKGLEWVSAISGSAGSTYYADSVKGRFTISRDNSKNTLYLQMNSLRAEDTAVYYCARDTNDFWSGYSIFDPWGQGTLVTVSS
VL: B1 VL
- screening ELISA (Avg), fold over background [1]: 23.8 fold over background
- specificity ELISA, fold over background [3]: 1 fold over background
- specificity ELISA, percent binding relative to Acro S1 [3]: 94%
- specificity ELISA, fold over background [2]: 0.9 fold over background
- specificity ELISA, percent binding relative to Acro S1 [2]: 78.3%

B3: SARS-CoV-2 variant 1-49 (antibody, V domains shown)
VH: EVQLLESGGGLVQPGGSLRLSCAASGFTFSSYAMYWVRQAPGKGLEWVSAISGSAGSTYYADSVKGRFTISRDNSKNTLYLQMNSLRAEDTAVYYCARDTNDFWGQGTLVTVSS
VL: B1 VL
- specificity ELISA, fold over background [2]: 0.8 fold over background
- specificity ELISA, percent binding relative to Acro S1 [2]: 78.8%

B4: SARS-CoV-2 variant 1-45 (antibody, V domains shown)
VH: EVQLLESGGGLVQPGGSLRLSCAASGFTFSSYAMSWVRQAPGKGLEWVSIISGSAGSTYYADSVKGRFTISRDNSKNTLYLQMNSLRAEDTAVYYCARDGYKYCLWGQGTLVTVSS
VL: B1 VL
- specificity ELISA, fold over background [2]: 1 fold over background
- specificity ELISA, percent binding relative to Acro S1 [2]: 8.3%

B5: SARS-CoV-2 variant 1-46 (antibody, V domains shown)
VH: B2 VH with S30T, Y35S, A55G, R98N, N101S, W104C, S105F, S108W
VL: B1 VL
- specificity ELISA, fold over background [2]: 0.9 fold over background
- specificity ELISA, percent binding relative to Acro S1 [2]: 19.8%

B6: SARS-CoV-2 variant 1-50 (antibody, V domains shown)
VH: B3 VH with A33D, Y35S, A55G, S57T, D99G, T100P, N101L
VL: B1 VL
- specificity ELISA, fold over background [2]: 0.8 fold over background
- specificity ELISA, percent binding relative to Acro S1 [2]: 5.9%

B7: SARS-CoV-2 variant 1-39 (antibody, V domains shown)
VH: EVQLLESGGGLVQPGGSLRLSCAASGFTFSSYAMYWVRQAPGKGLEWVTAISGSGGSTFYADSVKGRFTISRDNSKNTLYLQMNSLRAEDTAVYYCTRPPYGYYGDYWGQGTLVTVSS
VL: B1 VL
- specificity ELISA, fold over background [2]: 1.3 fold over background
- specificity ELISA, percent binding relative to Acro S1 [2]: 6.7%

B8: SARS-CoV-2 variant 1-48 (antibody, V domains shown)
VH: B2 VH with Y32H, R98H, N101K, S108C
VL: B1 VL
- specificity ELISA, fold over background [2]: 0.8 fold over background
- specificity ELISA, percent binding relative to Acro S1 [2]: 30.3%

B9: SARS-CoV-2 variant 1-2 (antibody, V domains shown)
VH: EVQLLESGGGLVQPGGSLRLSCAASGFTFSSQAMSWVRQAPGKGLEWVSAISGSGGGTYYADSVKGRFTISRDNSKNTLYLQMNSLRAEDTAVYYCAKDRRFGEFDPWGQGTLVTVSS
VL: QSALTQPASVSGSPGQSITISCTGTSSGVGSYNLVSWYQQHPGKAPKLMIYEGIKRPSGVSNRFSGSKSGNTASLTISGLQAEDEADYYCCSYAGSSSFVVFGGGTKLTVL
- screening ELISA (Avg), fold over background [1]: 24.2 fold over background
- specificity ELISA, fold over background [3]: 1.7 fold over background
- specificity ELISA, percent binding relative to Acro S1 [3]: 95.4%
- specificity ELISA, fold over background [2]: 1.7 fold over background
- specificity ELISA, percent binding relative to Acro S1 [2]: 93.5%

B10: SARS-CoV-2 variant 1-35 (antibody, V domains shown)
VH: EVQLLESGGGLVQPGGSLRLSCAASGFTFSNYAMSWVRQAPGKGLEWVSDISGSGGSTYYADSVKGRFTISRDNSKNTLYLQMNSLRAEDTAVYYCVKGTIPIFGVIRSAFDYWGQGTLVTVSS
VL: B9 VL with G28D, N33S, I54T, S97Y, F99Y
- specificity ELISA, fold over background [2]: 1.6 fold over background
- specificity ELISA, percent binding relative to Acro S1 [2]: 7.3%

B11: SARS-CoV-2 variant 1-27 (antibody, V domains shown)
VH: EVQLLESGGGLVQPGGSLRLSCAASGFTFSSYAMTWVRQAPGKGLEWVSAISGSGGGTYYADSVKGRFTISRDNSKNTLYLQMNSLRAEDTAVYYCASSSSWQFDYWGQGTLVTVSS
VL: B9 VL with G28Y, S31H, I54S, K55R, S97Y, S98T, F99H, V100Y
- screening ELISA (Avg), fold over background [1]: 27.2 fold over background
- specificity ELISA, fold over background [3]: 1.3 fold over background
- specificity ELISA, percent binding relative to Acro S1 [3]: 84.8%
- specificity ELISA, fold over background [2]: 1.6 fold over background
- specificity ELISA, percent binding relative to Acro S1 [2]: 109%

B12: SARS-CoV-2 variant 1-30 (antibody, V domains shown)
VH: B7 VH with Y35T, T49S, Y103D
VL: B9 VL with S27R, G28D, I54T, S97R, S98T, F99P
- screening ELISA (Avg), fold over background [1]: 29.5 fold over background
- specificity ELISA, fold over background [3]: 5.6 fold over background
- specificity ELISA, percent binding relative to Acro S1 [3]: 33.3%
- specificity ELISA, fold over background [2]: 1.4 fold over background
- specificity ELISA, percent binding relative to Acro S1 [2]: 8.5%

B13: SARS-CoV-2 variant 1-43 (antibody, V domains shown)
VH: B9 VH with S49T, R100T, R101I, D106Y
VL: B1 VL
- specificity ELISA, fold over background [2]: 1 fold over background
- specificity ELISA, percent binding relative to Acro S1 [2]: 14.5%

B14: SARS-CoV-2 variant 1-5 (antibody, V domains shown)
VH: B9 VH
VL: B9 VL with G53A, I54S, S97Y, S98T, V100A
- screening ELISA (Avg), fold over background [1]: 20.6 fold over background
- specificity ELISA, fold over background [3]: 1.2 fold over background
- specificity ELISA, percent binding relative to Acro S1 [3]: 82.9%
- specificity ELISA, fold over background [2]: 1.4 fold over background
- specificity ELISA, percent binding relative to Acro S1 [2]: 92%

B15: SARS-CoV-2 variant 1-3 (antibody, V domains shown)
VH: B9 VH
VL: B9 VL with T25I, G28D, I54T
- screening ELISA (Avg), fold over background [1]: 23.9 fold over background
- specificity ELISA, fold over background [3]: 1.5 fold over background
- specificity ELISA, percent binding relative to Acro S1 [3]: 91.2%
- specificity ELISA, fold over background [2]: 1.5 fold over background
- specificity ELISA, percent binding relative to Acro S1 [2]: 91.9%

B16: SARS-CoV-2 variant 1-20 (antibody, V domains shown)
VH: EVQLLESGGGLVQPGGSLRLSCAASGITFSSYAMSWVRQAPGKGLEWVSGISGSGGSTYYADSVKGRFTISRDNSKNTLYLQMNSLRAEDTAVYYCANHGSGTIFGVVIAKYYFDYWGQGTLVTVSS
VL: B9 VL with G28D, S31H, I54T
- specificity ELISA, fold over background [2]: 0.8 fold over background
- specificity ELISA, percent binding relative to Acro S1 [2]: 14.5%

B17: SARS-CoV-2 variant 1-31 (antibody, V domains shown)
VH: B7 VH with Y35N, T49S, Y103D
VL: B9 VL with G28D, S31K, I54S, K55Q, S97R, S98T, F99P
- screening ELISA (Avg), fold over background [1]: 20.7 fold over background
- specificity ELISA, fold over background [3]: 15.7 fold over background
- specificity ELISA, percent binding relative to Acro S1 [3]: 51.6%
- specificity ELISA, fold over background [2]: 1.2 fold over background
- specificity ELISA, percent binding relative to Acro S1 [2]: 3.8%

B18: SARS-CoV-2 variant 1-44 (antibody, V domains shown)
VH: B9 VH with S49T, R101K
VL: B1 VL
- specificity ELISA, fold over background [2]: 0.8 fold over background
- specificity ELISA, percent binding relative to Acro S1 [2]: 7.6%

B19: SARS-CoV-2 variant 1-28 (antibody, V domains shown)
VH: B11 VH with A33G, T35S
VL: B9 VL with I54S, K55Q, S98T, F99H, V100Y
- screening ELISA (Avg), fold over background [1]: 17.7 fold over background
- specificity ELISA, fold over background [3]: 1.1 fold over background
- specificity ELISA, percent binding relative to Acro S1 [3]: 110%
- specificity ELISA, fold over background [2]: 1.2 fold over background
- specificity ELISA, percent binding relative to Acro S1 [2]: 124%

B20: SARS-CoV-2 variant 1-4 (antibody, V domains shown)
VH: B9 VH
VL: B9 VL with G28D, S31T, I54S, K55Q
- screening ELISA (Avg), fold over background [1]: 20.6 fold over background
- specificity ELISA, fold over background [3]: 0.9 fold over background
- specificity ELISA, percent binding relative to Acro S1 [3]: 90.8%
- specificity ELISA, fold over background [2]: 1.1 fold over background
- specificity ELISA, percent binding relative to Acro S1 [2]: 105%

B21: SARS-CoV-2 variant 1-33 (antibody, V domains shown)
VH: B7 VH with Y35I, T49S, Y103D
VL: B9 VL with G28D, V35L, G53A, I54S, S97R, S98T, F99P
- screening ELISA (Avg), fold over background [1]: 17.6 fold over background
- specificity ELISA, fold over background [3]: 3 fold over background
- specificity ELISA, percent binding relative to Acro S1 [3]: 42.1%
- specificity ELISA, fold over background [2]: 1 fold over background
- specificity ELISA, percent binding relative to Acro S1 [2]: 14.6%

B22: SARS-CoV-2 variant 1-32 (antibody, V domains shown)
VH: B7 VH with T49S, Y103D
VL: QSALTQPASVSGSPGQSITISCTGTSSDVGGYNLVSWYQQHPGKAPKLMIYEGNKRPSGVSNRFSGSKSGNTASLTISGLQAEDEADYYCCSYAGSSTFPVVFGGGTKLTVL
- screening ELISA (Avg), fold over background [1]: 17.9 fold over background
- specificity ELISA, fold over background [3]: 4 fold over background
- specificity ELISA, percent binding relative to Acro S1 [3]: 35.3%
- specificity ELISA, fold over background [2]: 1.1 fold over background
- specificity ELISA, percent binding relative to Acro S1 [2]: 9.5%
